14 molecules from patent US20090105152A1 can be followed below.

Square brackets hold non-standard residues; d marks the D form. Primed or numbered codes have the meaning given here. Ends that are not written are not given here. * marks the point of attachment. Phe(4-Cl) = N[C@@H](Cc1ccc(Cl)cc1)C(=O)O; Phe(3-F) = N[C@@H](Cc1cccc(F)c1)C(=O)O; Pzc(2) = piperazine-2-carboxylic acid; Phe(2-F) = N[C@@H](Cc1ccccc1F)C(=O)O; Arg(Me) = CNC(=N)NCCC[C@H](N)C(=O)O; Hyp = O=C(O)[C@@H]1C[C@@H](O)CN1; Decanoyl = CCCCCCCCCC(=O)*; Ahx = NCCCCCC(=O)O; azaGly = NNC(=O)O

First the molecules themselves.
B1: des(1)-Ac-[D-Tyr2,D-Trp3,Thr5,Phe(2F)6,AzaGly7,Arg(Me)9,Trp10]MS10 (peptide)
peptide: Ac-[dY][dW]NT[Phe(2-F)][azaGly]L[Arg(Me)]W-NH2
SMILES: CNC(=N)NCCC[C@H](NC(=O)[C@H](CC(C)C)NC(=O)NNC(=O)[C@H](Cc1ccccc1F)NC(=O)[C@@H](NC(=O)[C@H](CC(N)=O)NC(=O)[C@@H](Cc1c[nH]c2ccccc12)NC(=O)[C@@H](Cc1ccc(O)cc1)NC(C)=O)[C@@H](C)O)C(=O)N[C@@H](Cc1c[nH]c2ccccc12)C(N)=O
B2: des(1)-Ac-[D-Tyr2,Glu3,Thr5,Phe(2F)6,AzaGly7,Arg(Me)9,Trp10]MS10 (peptide)
peptide: Ac-[dY]ENT[Phe(2-F)][azaGly]L[Arg(Me)]W-NH2
SMILES: CNC(=N)NCCC[C@H](NC(=O)[C@H](CC(C)C)NC(=O)NNC(=O)[C@H](Cc1ccccc1F)NC(=O)[C@@H](NC(=O)[C@H](CC(N)=O)NC(=O)[C@H](CCC(=O)O)NC(=O)[C@@H](Cc1ccc(O)cc1)NC(C)=O)[C@@H](C)O)C(=O)N[C@@H](Cc1c[nH]c2ccccc12)C(N)=O
B3: des(1)-Ac-[D-Tyr2,Hyp3,Thr5,Phe(2F)6,AzaGly7,Arg(Me)9,Trp10]MS10 (peptide)
peptide: Ac-[dY][Hyp]NT[Phe(2-F)][azaGly]L[Arg(Me)]W-NH2
SMILES: CNC(=N)NCCC[C@H](NC(=O)[C@H](CC(C)C)NC(=O)NNC(=O)[C@H](Cc1ccccc1F)NC(=O)[C@@H](NC(=O)[C@H](CC(N)=O)NC(=O)[C@@H]1C[C@@H](O)CN1C(=O)[C@@H](Cc1ccc(O)cc1)NC(C)=O)[C@@H](C)O)C(=O)N[C@@H](Cc1c[nH]c2ccccc12)C(N)=O
B4: des(1)-Ac-[D-Tyr2,Glu3,Thr5,Phe(4Cl)6,AzaGly7,Arg(Me)9,Trp10]MS10 (peptide)
peptide: Ac-[dY]ENT[Phe(4-Cl)][azaGly]L[Arg(Me)]W-NH2
SMILES: CNC(=N)NCCC[C@H](NC(=O)[C@H](CC(C)C)NC(=O)NNC(=O)[C@H](Cc1ccc(Cl)cc1)NC(=O)[C@@H](NC(=O)[C@H](CC(N)=O)NC(=O)[C@H](CCC(=O)O)NC(=O)[C@@H](Cc1ccc(O)cc1)NC(C)=O)[C@@H](C)O)C(=O)N[C@@H](Cc1c[nH]c2ccccc12)C(N)=O
B5: des(1)-Ac-[D-Tyr2,D-Trp3,Thr5,Phe(3F)6,AzaGly7,Arg(Me)9,Trp10]MS10 (peptide)
peptide: Ac-[dY][dW]NT[Phe(3-F)][azaGly]L[Arg(Me)]W-NH2
SMILES: CNC(=N)NCCC[C@H](NC(=O)[C@H](CC(C)C)NC(=O)NNC(=O)[C@H](Cc1cccc(F)c1)NC(=O)[C@@H](NC(=O)[C@H](CC(N)=O)NC(=O)[C@@H](Cc1c[nH]c2ccccc12)NC(=O)[C@@H](Cc1ccc(O)cc1)NC(C)=O)[C@@H](C)O)C(=O)N[C@@H](Cc1c[nH]c2ccccc12)C(N)=O
B6: des(1)-Ac-[D-Tyr2,Glu3,Thr5,Phe(3F)6,AzaGly7,Arg(Me)9,Trp10]MS10 (peptide)
peptide: Ac-[dY]ENT[Phe(3-F)][azaGly]L[Arg(Me)]W-NH2
SMILES: CNC(=N)NCCC[C@H](NC(=O)[C@H](CC(C)C)NC(=O)NNC(=O)[C@H](Cc1cccc(F)c1)NC(=O)[C@@H](NC(=O)[C@H](CC(N)=O)NC(=O)[C@H](CCC(=O)O)NC(=O)[C@@H](Cc1ccc(O)cc1)NC(C)=O)[C@@H](C)O)C(=O)N[C@@H](Cc1c[nH]c2ccccc12)C(N)=O
B7: des(1)-Ac-[D-Tyr2,D-Trp3,Thr5,Phe(4Cl)6,AzaGly7,Arg(Me)9,Trp10]MS10 (peptide)
peptide: Ac-[dY][dW]NT[Phe(4-Cl)][azaGly]L[Arg(Me)]W-NH2
SMILES: CNC(=N)NCCC[C@H](NC(=O)[C@H](CC(C)C)NC(=O)NNC(=O)[C@H](Cc1ccc(Cl)cc1)NC(=O)[C@@H](NC(=O)[C@H](CC(N)=O)NC(=O)[C@@H](Cc1c[nH]c2ccccc12)NC(=O)[C@@H](Cc1ccc(O)cc1)NC(C)=O)[C@@H](C)O)C(=O)N[C@@H](Cc1c[nH]c2ccccc12)C(N)=O
B8: des(1-2)-[Acp3,Thr5,AzaGly7,Arg(Me)9,Trp10]MS10 (peptide)
peptide: [Ahx]NTF[azaGly]L[Arg(Me)]W-NH2
modifications: N-terminus assumed
SMILES: CNC(=N)NCCC[C@H](NC(=O)[C@H](CC(C)C)NC(=O)NNC(=O)[C@H](Cc1ccccc1)NC(=O)[C@@H](NC(=O)[C@H](CC(N)=O)NC(=O)CCCCCN)[C@@H](C)O)C(=O)N[C@@H](Cc1c[nH]c2ccccc12)C(N)=O
B9: des(1-3)-Decanoyl-[Thr5,AzaGly7,Arg(Me)9,Trp10]MS10 (peptide)
peptide: Decanoyl-NTF[azaGly]L[Arg(Me)]W-NH2
SMILES: CCCCCCCCCC(=O)N[C@@H](CC(N)=O)C(=O)N[C@H](C(=O)N[C@@H](Cc1ccccc1)C(=O)NNC(=O)N[C@@H](CC(C)C)C(=O)N[C@@H](CCCNC(=N)NC)C(=O)N[C@@H](Cc1c[nH]c2ccccc12)C(N)=O)[C@@H](C)O
B10: des(1)-Ac-[D-Tyr2,Trp3,Thr5,Phe(2F)6,AzaGly7,Arg(Me)9,Trp10]MS10 (peptide)
peptide: Ac-[dY]WNT[Phe(2-F)][azaGly]L[Arg(Me)]W-NH2
SMILES: CNC(=N)NCCC[C@H](NC(=O)[C@H](CC(C)C)NC(=O)NNC(=O)[C@H](Cc1ccccc1F)NC(=O)[C@@H](NC(=O)[C@H](CC(N)=O)NC(=O)[C@H](Cc1c[nH]c2ccccc12)NC(=O)[C@@H](Cc1ccc(O)cc1)NC(C)=O)[C@@H](C)O)C(=O)N[C@@H](Cc1c[nH]c2ccccc12)C(N)=O
B11: des(1)-Ac-[D-Tyr2,Lys3,Thr5,Phe(2F)6,AzaGly7,Arg(Me)9,Trp10]MS10 (peptide)
peptide: Ac-[dY]KNT[Phe(2-F)][azaGly]L[Arg(Me)]W-NH2
SMILES: CNC(=N)NCCC[C@H](NC(=O)[C@H](CC(C)C)NC(=O)NNC(=O)[C@H](Cc1ccccc1F)NC(=O)[C@@H](NC(=O)[C@H](CC(N)=O)NC(=O)[C@H](CCCCN)NC(=O)[C@@H](Cc1ccc(O)cc1)NC(C)=O)[C@@H](C)O)C(=O)N[C@@H](Cc1c[nH]c2ccccc12)C(N)=O
B12: des(1)-Ac-[D-Tyr2,Lys3,Thr5,Phe(3F)6,AzaGly7,Arg(Me)9,Trp10]MS10 (peptide)
peptide: Ac-[dY]KNT[Phe(3-F)][azaGly]L[Arg(Me)]W-NH2
SMILES: CNC(=N)NCCC[C@H](NC(=O)[C@H](CC(C)C)NC(=O)NNC(=O)[C@H](Cc1cccc(F)c1)NC(=O)[C@@H](NC(=O)[C@H](CC(N)=O)NC(=O)[C@H](CCCCN)NC(=O)[C@@H](Cc1ccc(O)cc1)NC(C)=O)[C@@H](C)O)C(=O)N[C@@H](Cc1c[nH]c2ccccc12)C(N)=O
B13: des(1)-Ac-[D-Tyr2,Lys3,Thr5,Phe(4Cl)6,AzaGly7,Arg(Me)9,Trp10]MS10 (peptide)
peptide: Ac-[dY]KNT[Phe(4-Cl)][azaGly]L[Arg(Me)]W-NH2
SMILES: CNC(=N)NCCC[C@H](NC(=O)[C@H](CC(C)C)NC(=O)NNC(=O)[C@H](Cc1ccc(Cl)cc1)NC(=O)[C@@H](NC(=O)[C@H](CC(N)=O)NC(=O)[C@H](CCCCN)NC(=O)[C@@H](Cc1ccc(O)cc1)NC(C)=O)[C@@H](C)O)C(=O)N[C@@H](Cc1c[nH]c2ccccc12)C(N)=O

Chain of human OT7T175 (metastin receptor) (human) (Q969F8 whole entry L364H): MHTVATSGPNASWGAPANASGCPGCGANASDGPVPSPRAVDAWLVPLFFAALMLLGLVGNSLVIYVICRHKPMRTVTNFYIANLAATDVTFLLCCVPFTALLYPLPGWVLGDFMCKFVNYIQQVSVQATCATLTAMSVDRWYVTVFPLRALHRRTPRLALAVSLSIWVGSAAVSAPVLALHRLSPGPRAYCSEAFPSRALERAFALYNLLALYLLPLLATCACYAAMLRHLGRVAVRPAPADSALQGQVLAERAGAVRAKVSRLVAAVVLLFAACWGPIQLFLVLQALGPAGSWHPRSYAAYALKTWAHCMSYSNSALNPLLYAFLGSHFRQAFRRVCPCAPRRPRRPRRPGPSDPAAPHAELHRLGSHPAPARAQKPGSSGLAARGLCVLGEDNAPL

This assay concerns the target human OT7T175 (metastin receptor) (human) (UniProt Q969F8). Put plainly: cell-based or functional assay.
B1: the intracellular Ca ion level-increasing activity [specific activity to Metastin (1-54)] (relative to Metastin (1-54)) came to 0.5. For the molecule B2, the intracellular Ca ion level-increasing activity [specific activity to Metastin (1-54)] (relative to Metastin (1-54)) was found to be 3.5.

In the case of B3, the intracellular Ca ion level-increasing activity [specific activity to Metastin (1-54)] (relative to Metastin (1-54)) was found to be 6.4. The value for B4 was 1.9; that for B5 was 1; that for B6 was 2.7. For the molecule B7, the intracellular Ca ion level-increasing activity [specific activity to Metastin (1-54)] (relative to Metastin (1-54)) came out at 0.4. Regarding B8, the intracellular Ca ion level-increasing activity [specific activity to Metastin (1-54)] (relative to Metastin (1-54)) was found to be 8.9. For B9, the intracellular Ca ion level-increasing activity [specific activity to Metastin (1-54)] (relative to Metastin (1-54)) came out at 7.2. As for B10, the intracellular Ca ion level-increasing activity [specific activity to Metastin (1-54)] (relative to Metastin (1-54)) was found to be 1.5. Next, B11: 3.1; Ac-[dY][Pzc(2)]NTF[azaGly]L[Arg(Me)]W-NH2 [des(1)-Ac-[D-Tyr2,Pzc(2)3,Thr5,AzaGly7,Arg(Me)9,Trp10]MS10]: 1.7. The value for B12 was 2.4; that for B13 was 1.8.
